Results published in patent publication EP1562972B1 (Facet Biotech Corporation, dated 2010).

B1: OST577-IgG2M3 wild-type antibody (antibody)
chain 1: QVQLVESGGGVVQPGRSLRLSCAASGFTFSRYGMHWVRQAPGKGLEWVAVISYDGSNKWYADSVKGRFTISRDNSKNTLFLQMHSLRAADTGVYFCAKDQLYFGSQSPGHYWGQGTLVTVSSASTKGPSVFPLAPCSRSTSESTAALGCLVKDYFPEPVTVSWNSGALTSGVHTFPAVLQSSGLYSLSSVVTVPSSNFGTQTYTCNVDHKPSNTKVDKTVERKCCVECPPCPAPPAAAPSVFLFPPKPKDTLMISRTPEVTCVVVDVSHEDPEVQFNWYVDGVEVHNAKTKPREEQFNSTFRVVSVLTVVHQDWLNGKEYKCKVSNKGLPAPIEKTISKTKGQPREPQVYTLPPSREEMTKNQVSLTCLVKGFYPSDIAVEWESNGQPENNYKTTPPMLDSDGSFFLYSKLTVDKSRWQQGNVFSCSVMHEALHNHYTQKSLSLSPSK
chain 2: SYVLTQPPSVSVAPGQTARITCGGDNIGSKSVNWFQQKPGQAPVLVVYDDNERPSGISERFSGSNSGNTATLTISRVEAGDEADYYCQVWDSSSDHVVFGGGTKLTVLGQPKAAPSVTLFPPSSEELQANKATLVCLISDFYPGAVTVAWKADSSPVKAGVETTTPSKQSNNKYAASSYLSLTPEQWKSHRSYSCQVTHEGSTVEKTVAPTECS
B2: OST577-IgG1 wild-type antibody (antibody)
chain 1: not shown
chain 2: B1 chain 2

Assays:
[1] = target: T1, human neonatal Fc receptor (FcRn), recombinant GPI-linked, on NS0 cells (human, UniProt P55899 24-297; P61769 21-119); test: competition flow cytometry, NS0 cells with human FcRn, vs biotinylated HuEP5C7-IgG2M3, FSB pH 6.0
T1 construct: Expressed from vector pDL208 on the surface of NS0 cells; also called human FcRn; HuFcRn; not shown: human c-myc decapeptide flanked by linker peptides, then GPI linkage signal of human decay accelerating factor (vector p)

[2] = target: T1, human neonatal Fc receptor (FcRn), …; test: competition flow cytometry, NS0 cells with human FcRn, vs biotinylated HuEP5C7-IgG2M3, FBB pH 6.0
[3] = target: T1, human neonatal Fc receptor (FcRn), …; test: competition flow cytometry, NS0 cells with human FcRn, vs biotinylated OST577-IgG2M3, FBB pH 6.0
[4] = target: T2, rhesus neonatal Fc receptor (FcRn), recombinant GPI-linked, on NS0 cells (rhesus, UniProt H9Z6D2 24-297; Q6V7J5 21-119, GPI-linked at the C-terminus); test: competition flow cytometry, NS0 cells with rhesus FcRn, vs biotinylated OST577-IgG1, FBB pH 6.0
T2 construct: Expressed from vector pDL410 on the surface of NS0 cells; also called rhesus FcRn; RhFcRn; not shown: human c-myc decapeptide flanked by linker peptides, then GPI linkage signal of human decay accelerating factor (vector p)

[5] = target: T1, human neonatal Fc receptor (FcRn), …; test: competition flow cytometry, NS0 cells with human FcRn, vs biotinylated OST577-IgG1, FBB pH 6.0
[6] = target: T1, human neonatal Fc receptor (FcRn), …; test: as above; remark: listed apart in the source

Binder	IC50 [1] [µg/mL]	Relative Binding [1]	IC50 [2] [µg/mL]	Relative Binding [2]	IC50 [3] [µg/mL]	Relative Binding [3]	IC50 [4] [µg/mL]	Relative Binding [4]	IC50 [5] [µg/mL]	Relative Binding [5]	IC50 [6] [µg/mL]	Relative Binding [6]
B1	10.7	1 ratio (IC50 wild-type / IC50 mutant)	9.4	1 ratio (IC50 wild-type / IC50 mutant)	11.9	1 ratio (IC50 wild-type / IC50 mutant)						
B2							8.86	1 ratio (IC50 wild-type / IC50 mutant)	10.3	1 ratio (IC50 wild-type / IC50 mutant)	13.9	1 ratio (IC50 wild-type / IC50 mutant)
